Assay results published in patent publication US20260167699A1 (Chugai, published 2026).
Each block holds one binder with its values, some of them ahead of it.

Columns and labels:
FcγRIIIa = molecular target: T1, FcγRIIIa (human, UniProt P08637 17-208); test: SPR (Biacore);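 also: antibody variants captured on an SPR sensor chip, with FcγRIIIa passed over as analyte in HBS-EP+ buffer at 25 °C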
T1 construct: extracellular domain; also called 3a; FcγRIIIa extracellular domain

[1] = molecular target: T2, FcγRIIIa extracellular domain, C-terminal His tag (human, UniProt P08637 17-208); test: SPR, binding activity relative to GpH7-A5/GpH7-B3/GpL16-k0 (=100)
T2 construct: extracellular domain; also called 3a
T2 sequence (P08637 other isoform, or with tags, fused parts or gaps): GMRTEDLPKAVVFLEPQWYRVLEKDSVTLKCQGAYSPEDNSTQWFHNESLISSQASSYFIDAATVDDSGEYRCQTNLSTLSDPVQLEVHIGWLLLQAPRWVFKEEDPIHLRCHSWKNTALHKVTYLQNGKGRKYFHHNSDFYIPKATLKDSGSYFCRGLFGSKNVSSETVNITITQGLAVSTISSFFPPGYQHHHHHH

T1 sequence (P08637 other isoform, or with tags, fused parts or gaps): as above

He/Con 3a (FcγRIIIa): 102 % of GpH7-A5/GpH7-B3/GpL16-k0
B1: GpH7-A5/GpH7-B3 variant T335_10E/GpL16-k0 (antibody, human IgG1, kappa)
heavy 1: not shown
heavy 2: not shown
light: DIVMTQSPLSLPVTPGEPASISCQASESLVHSNRNTYLHWYLQKPGQSPQLLIYKVSNRFSGVPDRFSGSGSGTDFTLKISRVEAEDVGVYYCSQNTHVPPTFGQGTKVEIERTVAAPSVFIFPPSDEQLKSGTASVVCLLNNFYPREAKVQWKVDNALQSGNSQESVTEQDSKDSTYSLSSTLTLSKADYEKHKVYACEVTHQGLSSPVTKSFNRGEC
notes: copies: 1 + 1 + 2

He/Con 3a [1]: 75.6%
B2: GpH7-A5/GpH7-B3 variant H268_05P/GpL16-k0 (antibody, human IgG1, kappa)
heavy 1: not shown
heavy 2: not shown
light: B1 light
notes: He Ab; copies: 1 + 1 + 2

He/Con 3a (FcγRIIIa): 93.1 % of GpH7-A5/GpH7-B3/GpL16-k0
B3: GpH7-A5/GpH7-B3 variant T335_12R/GpL16-k0 (antibody, human IgG1, kappa)
heavy 1: not shown
heavy 2: not shown
light: B1 light
notes: copies: 1 + 1 + 2

He/Con 3a (FcγRIIIa): 88.6 % of GpH7-A5/GpH7-B3/GpL16-k0
B4: GpH7-A5/GpH7-B3 variant Y300_01G/GpL16-k0 (antibody, human IgG1, kappa)
heavy 1: not shown
heavy 2: not shown
light: B1 light
notes: copies: 1 + 1 + 2

He/Con 3a (FcγRIIIa): 105 % of GpH7-A5/GpH7-B3/GpL16-k0
B5: GpH7-A5/GpH7-B3 variant Y300_19Q/GpL16-k0 (antibody, human IgG1, kappa)
heavy 1: not shown
heavy 2: not shown
light: B1 light
notes: copies: 1 + 1 + 2

He/Con 3a (FcγRIIIa): 113 % of GpH7-A5/GpH7-B3/GpL16-k0
B6: GpH7-A5/GpH7-B3 variant Y300_10E/GpL16-k0 (antibody, human IgG1, kappa)
heavy 1: not shown
heavy 2: not shown
light: B1 light
notes: copies: 1 + 1 + 2

He/Con 3a (FcγRIIIa): 117 % of GpH7-A5/GpH7-B3/GpL16-k0
B7: GpH7-A5/GpH7-B3 variant V266_08L/GpL16-k0 (antibody, human IgG1, kappa)
heavy 1: not shown
heavy 2: not shown
light: B1 light
notes: copies: 1 + 1 + 2

He/Con 3a (FcγRIIIa): 113 % of GpH7-A5/GpH7-B3/GpL16-k0
B8: GpH7-A5/GpH7-B3 variant V266_07I/GpL16-k0 (antibody, human IgG1, kappa)
heavy 1: not shown
heavy 2: not shown
light: B1 light
notes: copies: 1 + 1 + 2

He/Con 3a (FcγRIIIa): 114 % of GpH7-A5/GpH7-B3/GpL16-k0
B9: GpH7-A5/GpH7-B3 variant Y300_08L/GpL16-k0 (antibody, human IgG1, kappa)
heavy 1: not shown
heavy 2: not shown
light: B1 light
notes: copies: 1 + 1 + 2

He/Con 3a (FcγRIIIa): 101 % of GpH7-A5/GpH7-B3/GpL16-k0
B10: GpH7-A5/GpH7-B3 variant Y300_20W/GpL16-k0 (antibody, human IgG1, kappa)
heavy 1: not shown
heavy 2: not shown
light: B1 light
notes: copies: 1 + 1 + 2

He/Con 3a (FcγRIIIa): 79.5 % of GpH7-A5/GpH7-B3/GpL16-k0
B11: GpH7-A5/GpH7-B3 variant Y296_04F/GpL16-k0 (antibody, human IgG1, kappa)
heavy 1: not shown
heavy 2: not shown
light: B1 light
notes: copies: 1 + 1 + 2

He/Con 3a (FcγRIIIa): 80.3 % of GpH7-A5/GpH7-B3/GpL16-k0
B12: GpH7-A5/GpH7-B3 variant Y300_13S/GpL16-k0 (antibody, human IgG1, kappa)
heavy 1: not shown
heavy 2: not shown
light: B1 light
notes: copies: 1 + 1 + 2

He/Con 3a (FcγRIIIa): 94.4 % of GpH7-A5/GpH7-B3/GpL16-k0
B13: GpH7-A5/GpH7-B3 variant T335_18N/GpL16-k0 (antibody, human IgG1, kappa)
heavy 1: not shown
heavy 2: not shown
light: B1 light
notes: copies: 1 + 1 + 2

He/Con 3a (FcγRIIIa): 69.1 % of GpH7-A5/GpH7-B3/GpL16-k0
B14: GpH7-A5/GpH7-B3 variant Y296_16H/GpL16-k0 (antibody, human IgG1, kappa)
heavy 1: not shown
heavy 2: not shown
light: B1 light
notes: copies: 1 + 1 + 2

He/Con 3a [1]: 54%
B15: GpH7-A5/GpH7-B3 variant A327_19Q/GpL16-k0 (antibody, human IgG1, kappa)
heavy 1: not shown
heavy 2: not shown
light: B1 light
notes: He Ab; copies: 1 + 1 + 2

He/Con 3a (FcγRIIIa): 100 % of GpH7-A5/GpH7-B3/GpL16-k0
B16: GpH7-A5/GpH7-B3 variant Y300_04F/GpL16-k0 (antibody, human IgG1, kappa)
heavy 1: not shown
heavy 2: not shown
light: B1 light
notes: copies: 1 + 1 + 2

He/Con 3a (FcγRIIIa): 74.6 % of GpH7-A5/GpH7-B3/GpL16-k0
B17: GpH7-A5/GpH7-B3 variant Y296_06M/GpL16-k0 (antibody, human IgG1, kappa)
heavy 1: not shown
heavy 2: not shown
light: B1 light
notes: copies: 1 + 1 + 2

He/Con 3a (FcγRIIIa): 89 % of GpH7-A5/GpH7-B3/GpL16-k0
B18: GpH7-A5/GpH7-B3 variant Y296_09D/GpL16-k0 (antibody, human IgG1, kappa)
heavy 1: not shown
heavy 2: not shown
light: B1 light
notes: copies: 1 + 1 + 2

He/Con 3a (FcγRIIIa): 60.7 % of GpH7-A5/GpH7-B3/GpL16-k0
B19: GpH7-A5/GpH7-B3 variant Y296_14T/GpL16-k0 (antibody, human IgG1, kappa)
heavy 1: not shown
heavy 2: not shown
light: B1 light
notes: copies: 1 + 1 + 2

He/Con 3a (FcγRIIIa): 67.9 % of GpH7-A5/GpH7-B3/GpL16-k0
B20: GpH7-A5/GpH7-B3 variant Y296_18N/GpL16-k0 (antibody, human IgG1, kappa)
heavy 1: not shown
heavy 2: not shown
light: B1 light
notes: copies: 1 + 1 + 2

He/Con 3a (FcγRIIIa): 84.9 % of GpH7-A5/GpH7-B3/GpL16-k0
B21: GpH7-A5/GpH7-B3 variant V266_06M/GpL16-k0 (antibody, human IgG1, kappa)
heavy 1: not shown
heavy 2: not shown
light: B1 light
notes: copies: 1 + 1 + 2

He/Con 3a (FcγRIIIa): 102 % of GpH7-A5/GpH7-B3/GpL16-k0
B22: GpH7-A5/GpH7-B3 variant Y300_16H/GpL16-k0 (antibody, human IgG1, kappa)
heavy 1: not shown
heavy 2: not shown
light: B1 light
notes: copies: 1 + 1 + 2

He/Con 3a (FcγRIIIa): 97.3 % of GpH7-A5/GpH7-B3/GpL16-k0
B23: GpH7-A5/GpH7-B3 variant T335_20W/GpL16-k0 (antibody, human IgG1, kappa)
heavy 1: not shown
heavy 2: not shown
light: B1 light
notes: copies: 1 + 1 + 2

He/Con 3a [1]: 86%
B24: GpH7-A5/GpH7-B3 variant A327_09D/GpL16-k0 (antibody, human IgG1, kappa)
heavy 1: not shown
heavy 2: not shown
light: B1 light
notes: He Ab; copies: 1 + 1 + 2

He/Con 3a (FcγRIIIa): 100 % of GpH7-A5/GpH7-B3/GpL16-k0
B25: GpH7-A5/GpH7-B3 variant T335_13S/GpL16-k0 (antibody, human IgG1, kappa)
heavy 1: not shown
heavy 2: not shown
light: B1 light
notes: copies: 1 + 1 + 2

He/Con 3a [1]: 98.8%
B26: GpH7-A5/GpH7-B3 variant A330_03V/GpL16-k0 (antibody, human IgG1, kappa)
heavy 1: not shown
heavy 2: not shown
light: B1 light
notes: He Ab; copies: 1 + 1 + 2

He/Con 3a (FcγRIIIa): 51.3 % of GpH7-A5/GpH7-B3/GpL16-k0
B27: GpH7-A5/GpH7-B3 variant Y296_01G/GpL16-k0 (antibody, human IgG1, kappa)
heavy 1: not shown
heavy 2: not shown
light: B1 light
notes: copies: 1 + 1 + 2

He/Con 3a [1]: 54%
B28: GpH7-A5/GpH7-B3 variant A327_06M/GpL16-k0 (antibody, human IgG1, kappa)
heavy 1: not shown
heavy 2: not shown
light: B1 light
notes: He Ab; copies: 1 + 1 + 2

He/Con 3a [1]: 87.3%
B29: GpH7-A5/GpH7-B3 variant A330_01G/GpL16-k0 (antibody, human IgG1, kappa)
heavy 1: not shown
heavy 2: not shown
light: B1 light
notes: He Ab; copies: 1 + 1 + 2

He/Con 3a [1]: 61.9%
B30: GpH7-A5/GpH7-B3 variant A327_05P/GpL16-k0 (antibody, human IgG1, kappa)
heavy 1: not shown
heavy 2: not shown
light: B1 light
notes: He Ab; copies: 1 + 1 + 2
